Experimental data published in patent US20200207858A1 (ADICET BIO, published 2020).

Columns and labels:
[1] = target: T1, Single-chain HLA-A2 (scHLA-A2)/TyrD 369-377 peptide complex; experiment: SPR (ProteOn), IgG captured by immobilized anti-mouse antibody, scHLA-A2/TyrD complex as analyte at 16-250 nM, apparent affinity
T1 construct: Used as the soluble analyte in SPR; not shown: flexible linker

[2] = target: T1, Single-chain HLA-A2 (scHLA-A2)/TyrD …; experiment: SPR (ProteOn), IgG captured by immobilized anti-mouse antibody, scHLA-A2/TyrD 369-377 as analyte (250-16 nM), Langmuir kinetic fit, column KD
Experimental: (§1) Briefly, six channels of ProteOn GLM sensor chip (BioRad laboratories) were activated with 50 μl of a mixture of 0.04 M N-ethyl-N′-(3-dimethylaminopropyl) carbodiimide (EDC) and 0.01 M sulfo-N-hydroxysuccinimide (Sulfo-NHS) at a flow rate of 30 μl/min. The anti-mouse or anti-human polyclonal antibodies (Jackson ImmunoResearch) were diluted in 10 mM sodium acetate buffer pH 4.5 to a final concentration of 25 μg/ml and 150 μl were injected followed by an injection of 150 μl of 1 M ethanolamine-HCl pH 8.5. The IgG TCRL antibodies were injected in the vertical orientation with a flow rate of 30 μl/min. […] Running buffer (PBST) was injected simultaneously in the sixth channel for double referencing to correct for loss of the captured antibodies from the chip sensor surface during the experiment. All binding sensorgrams were collected, processed and analyzed using the integrated ProteOn Manager (Bio-Rad Laboratories, Hercules, USA) software. Binding curves were fitted using the Langmuir model describing 1:1 binding stoichiometry, or with the Langmuir and mass transfer limitation model.

[3] = target: T1, Single-chain HLA-A2 (scHLA-A2)/TyrD …; experiment: SPR (ProteOn), IgG captured by immobilized anti-human antibody, scHLA-A2/TyrD 369-377 as analyte (250-16 nM), Langmuir kinetic fit, column KD
Experimental: as §1

[4] = target: T1, Single-chain HLA-A2 (scHLA-A2)/TyrD …; experiment: SPR (ProteOn), IgG captured by immobilized anti-human antibody, scHLA-A2/TyrD complex as analyte at 16-250 nM, apparent affinity
Experimental: as §1

Kd [1] | Kd [2] | Kd [3] | Kd [4] | Binder
4.6 nM | 3.98 nM | – | – | D11 TCRL antibody (murine parental monoclonal antibody) (antibody, mouse IgG1, kappa, V domains shown, Mouse IgG1 isotype, recombinant from Expi293 cells; The antibody was biotinylated for flow cytometry; also called mouse parental D11) VH: not shown VL: DIQMTQSPSSLSASLGGKVTITCKASQDIHNYIAWYQHKPVKGPRLLIHYTSTLQPGTPSRFSGSGSGRDYSFSISNLEPEDIATYYCLQYDNLWTFGGGTKLEIKR
– | – | 4.61 nM | 3.9 nM | hD11-5 TCRL antibody (humanized D11) (antibody, human IgG1, kappa, V domains shown, The antibody was biotinylated for flow cytometry; also called dH11-5) VH: QITLKESGPTLVKPTQTLTLTCTFSGFSLSTSGMGVSWIRQPPGKALEWLAHIYWDDDKRYNPSLKSRLTITKDTSKNQVVLTMTNMDPVDTATYYCARKDYGSSFYAMHYWGQGTLVTVSS VL: DIQMTQSPSSLSASVGDRVTITCKASQDIHNYIAWYQQKPGKAPKLLIHYTSTLQPGVPSRFSGSGSGTDFTFTISSLQPEDIATYYCLQYDNLWTFGQGTKVEIKR
